Experimental data taken from article PMC10500007.

Key:
Assay in all cases: BLI; Octet RED96; His-tagged or Avi-tagged minibinder immobilised on Ni-NTA or streptavidin tips, dipped into titrations of integrin; association 900 s, dissociation 1200 s
av6_3 A39K = target: av6_3 A39K
av6_3 E13TG64R = target: av6_3 E13TG64R
av6_3 E13TM15RA39KG64R = target: av6_3 E13TM15RA39KG64R
av6_3 E13TM15RA39K = target: av6_3 E13TM15RA39K
av6_3 G64R = target: av6_3 G64R
av6_3 M15RG64R = target: av6_3 M15RG64R
av6_3 M15R = target: av6_3 M15R
Sequence of av6_3 M15R (main, as listed by the source M15R): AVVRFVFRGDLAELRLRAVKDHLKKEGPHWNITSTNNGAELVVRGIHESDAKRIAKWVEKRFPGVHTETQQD

Sequence of av6_3 E13TM15RA39KG64R (main, as listed by the source): as the sequence (main, as listed by the source M15R) above, with E13T, A39K, G64R counted along it
Sequence of av6_3 G64R (main, as listed by the source G64R): as the sequence (main, as listed by the source M15R) above, with R15M, G64R counted along it
Sequence of av6_3 E13TG64R (main, as listed by the source): as the sequence (main, as listed by the source M15R) above, with E13T, R15M, G64R counted along it
Sequence of av6_3 E13TM15RA39K (main, as listed by the source): as the sequence (main, as listed by the source M15R) above, with E13T, A39K counted along it
Sequence of av6_3 A39K (main, as listed by the source A39K): as the sequence (main, as listed by the source M15R) above, with R15M, A39K counted along it
Sequence of av6_3 M15RG64R (main, as listed by the source): as the sequence (main, as listed by the source M15R) above, with G64R counted along it

With “human integrin αvβ6 (soluble, BLI analyte) (from UniProt P06756 31-1048; P18564 22-709) (receptor)” the Kd (av6_3 A39K) was 0.64 nM, the koff (av6_3 A39K) was 8.16e-05 s⁻¹ and the kon (av6_3 A39K) was 127000 M⁻¹ s⁻¹. For the same substance, the Kd (av6_3 E13TG64R) was 0.79 nM, the koff (av6_3 E13TG64R) was 8.87e-05 s⁻¹ and the kon (av6_3 E13TG64R) was 112000 M⁻¹ s⁻¹. For the same substance, the Kd (av6_3 E13TM15RA39KG64R) was 0.79 nM, the koff (av6_3 E13TM15RA39KG64R) was 8.31e-05 s⁻¹ and the kon (av6_3 E13TM15RA39KG64R) was 104000 M⁻¹ s⁻¹. It also gave a Kd (av6_3 E13TM15RA39K) of 1.08 nM, a koff (av6_3 E13TM15RA39K) of 9.1e-05 s⁻¹ and a kon (av6_3 E13TM15RA39K) of 84300 M⁻¹ s⁻¹. It also gave a Kd (av6_3 G64R) of 0.95 nM, a koff (av6_3 G64R) of 0.000134 s⁻¹ and a kon (av6_3 G64R) of 141000 M⁻¹ s⁻¹. The Kd (av6_3 M15RG64R) was 0.74 nM, the koff (av6_3 M15RG64R) was 7.71e-05 s⁻¹ and the kon (av6_3 M15RG64R) was 104000 M⁻¹ s⁻¹. The Kd (av6_3 M15R) was 0.38 nM, the koff (av6_3 M15R) was 6.65e-05 s⁻¹ and the kon (av6_3 M15R) was 175000 M⁻¹ s⁻¹.
